Test [1] deals with VEGF165, a splice variant of VEGF-A (UniProt P15692). Kind of test: cell-based or functional assay.
For test [2] the target is unchanged. Description: direct binding ELISA; VEGF165 coated, anti-human IgG Fc-HRP detection. (In general: ELISA stands for enzyme-linked immunosorbent assay.)
For test [3] the target is unchanged. Description: competitive binding in solution; 5 pM VEGF165 overnight, free VEGF165 by Quantikine sandwich ELISA.

pEC50, pIC50: −log10 of the molar value.

Sequence of VEGF165, a splice variant of VEGF-A (P15692 other isoform, or with tags, fused parts or gaps mutant): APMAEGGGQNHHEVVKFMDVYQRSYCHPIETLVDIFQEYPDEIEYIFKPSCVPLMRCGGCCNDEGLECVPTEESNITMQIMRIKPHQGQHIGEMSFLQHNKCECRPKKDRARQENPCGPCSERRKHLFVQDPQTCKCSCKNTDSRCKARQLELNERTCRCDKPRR

Turning to “Positive Control 1 (synthesized VEGF Trap) (from UniProt P17948 129-230; P35968 225-327) (Fc fusion)”, in test [1], the inhibition of VEGF-dependent HUVEC proliferation, IC50 was found to be 68 pM. Besides, the pEC50 (usually the negative decadic logarithm of the EC50, by convention in mol/L) in test [2] was 10.06. In test [3], the negative-log IC50 (pIC50) (commonly the IC50 on a negative log10 scale, so that one unit is a factor of ten) was 11.29.
